# Measurements as given in US20090068173A1 (LABORATOIRES SERONO S A, published 2009).
# T1: CCL3/MIP-1 alpha (UniProt P10147 24-92)
# T1 construct: also called MIP-1α; 125I-CCL3/MIP-1 alpha
# T1 sequence (looked up): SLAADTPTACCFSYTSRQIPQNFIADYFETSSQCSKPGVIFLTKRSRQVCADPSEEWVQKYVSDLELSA
# Molecular target: T1, CCL3/MIP-1 alpha
# Assay: SPA competition: ChBP-59-HIS (insect cells) titrated against radiolabeled CCL3/MIP-1 alpha and bead-immobilized CCR5
binder,measurement,value
"ChBP-59-HIS (recombinant histidine-tagged ChBP-59, mature form) (other) EDDEDYGDLGGCPFLVAENKTGYPTIVACKQDCNGTTETAPNGTRCFSIGDEGLRRMTANLPYDCPLGQCSNGDCIPKETYEVCYRRNWRDKKNHHHHHH",EC50,0.012 nM
